Results reported in US20190241669A1 (published 2019).

How the values were obtained:
cynomolgus monkey BCMA = target: T1, cynomolgus monkey BCMA (cynomolgus monkey, UniProt A0A2K5UD97 1-53); test: SPR, IgG on chip, cyBCMA analyte, 37C
T1 construct: Soluble analyte in SPR; construct not described; also called cyBCMA; Cyno BCMA

Human BCMA (human) [1] = target: Human BCMA (human) (UniProt Q02223); test: SPR, IgG immobilised, huBCMA analyte, 37 C
Human BCMA (human) [2] = target: Human BCMA (human) (UniProt Q02223); test: SPR, IgG immobilised, huBCMA analyte, 25 C

T1 sequence (A0A2K5UD97 entry or part of it): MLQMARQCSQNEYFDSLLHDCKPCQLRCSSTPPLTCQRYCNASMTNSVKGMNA

Row | Binder | Kd (cynomolgus monkey BCMA) [nM] | T½ (cynomolgus monkey BCMA) [min] | koff (cynomolgus monkey BCMA) [s⁻¹] | kon (cynomolgus monkey BCMA) [M⁻¹ s⁻¹] | Kd (Human BCMA (human) [1]) [nM] | T½ (Human BCMA (human) [1]) [min] | koff (Human BCMA (human) [1]) [s⁻¹] | kon (Human BCMA (human) [1]) [M⁻¹ s⁻¹] | Kd (Human BCMA (human) [2]) [nM] | T½ (Human BCMA (human) [2]) [min] | koff (Human BCMA (human) [2]) [s⁻¹] | kon (Human BCMA (human) [2]) [M⁻¹ s⁻¹]
1 | L3.PY/L3.KF/H2.QL (antibody, V domains shown, IgG) VH: EVQLLESGGGLVQPGGSLRLSCAASGFTFGSYAMTWVRQAPGKGLEWVSAISGSGGNTFYADQLKGRFTISRDNSKNTLYLQMNSLRAEDTAVYYCARVSPIASGMDYWGQGTLVTVSS VL: EIVLTQSPGTLSLSPGERATLSCRASQSVSSSYLAWYQQKPGQAPRLLIYGASSRATGIPDRFSGSGSGTDFTLTISRLEPEDFAVYYCKFYPYPPSFTFGQGTKVEIK | 2.18 | 3.73 | 0.0031 | 1.42e+06 | 0.6 | 9.26 | 0.00125 | 2.07e+06 | – | – | – | –
2 | L1.LGF/L3.PY/H3.AP (antibody, V domains shown) VH: EVQLLESGGGLVQPGGSLRLSCAASGFTFGSYAMTWVRQAPGKGLEWVSAISGSGGNTFYADSVKGRFTISRDNSKNTLYLQMNSLRAEDTAVYYCARVSPIAAPMDYWGQGTLVTVSS VL: EIVLTQSPGTLSLSPGERATLSCRASQSLGSFYLAWYQQKPGQAPRLLIYGASSRATGIPDRFSGSGSGTDFTLTISRLEPEDFAVYYCQHYPYPPSFTFGQGTKVEIK | – | – | – | – | – | – | – | – | 2.12 | 11.9 | 0.000969 | 457000
3 | L1.LGF/L3.NY/H3.AP (antibody, V domains shown) VH: EVQLLESGGGLVQPGGSLRLSCAASGFTFGSYAMTWVRQAPGKGLEWVSAISGSGGNTFYADSVKGRFTISRDNSKNTLYLQMNSLRAEDTAVYYCARVSPIAAPMDYWGQGTLVTVSS VL: EIVLTQSPGTLSLSPGERATLSCRASQSLGSFYLAWYQQKPGQAPRLLIYGASSRATGIPDRFSGSGSGTDFTLTISRLEPEDFAVYYCQHYNYPPSFTFGQGTKVEIK | – | – | – | – | – | – | – | – | 0.57 | 21.7 | 0.000533 | 936000
4 | L1.LGF/L3.KW/H3.AP (antibody, V domains shown) VH: EVQLLESGGGLVQPGGSLRLSCAASGFTFGSYAMTWVRQAPGKGLEWVSAISGSGGNTFYADSVKGRFTISRDNSKNTLYLQMNSLRAEDTAVYYCARVSPIAAPMDYWGQGTLVTVSS VL: EIVLTQSPGTLSLSPGERATLSCRASQSLGSFYLAWYQQKPGQAPRLLIYGASSRATGIPDRFSGSGSGTDFTLTISRLEPEDFAVYYCKHYGWPPSFTFGQGTKVEIK | – | – | – | – | – | – | – | – | 2.44 | 5.1 | 0.00227 | 928000
5 | L3.PY/L3.KY/H2.HA (antibody, V domains shown, IgG) VH: EVQLLESGGGLVQPGGSLRLSCAASGFTFGSYAMTWVRQAPGKGLEWVSAISHAGGNTFYADSVKGRFTISRDNSKNTLYLQMNSLRAEDTAVYYCARVSPIASGMDYWGQGTLVTVSS VL: EIVLTQSPGTLSLSPGERATLSCRASQSVSSSYLAWYQQKPGQAPRLLIYGASSRATGIPDRFSGSGSGTDFTLTISRLEPEDFAVYYCKYYPYPPSFTFGQGTKVEIK | 1.4 | 3.63 | 0.00318 | 2.28e+06 | 0.49 | 7.1 | 0.00163 | 3.29e+06 | – | – | – | –
6 | L3.PY/L3.KY/H3.YA (antibody, V domains shown, IgG) VH: EVQLLESGGGLVQPGGSLRLSCAASGFTFGSYAMTWVRQAPGKGLEWVSAISGSGGNTFYADSVKGRFTISRDNSKNTLYLQMNSLRAEDTAVYYCARVSPIYAGMDYWGQGTLVTVSS VL: EIVLTQSPGTLSLSPGERATLSCRASQSVSSSYLAWYQQKPGQAPRLLIYGASSRATGIPDRFSGSGSGTDFTLTISRLEPEDFAVYYCKYYPYPPSFTFGQGTKVEIK | 2.33 | 2.7 | 0.00428 | 1.84e+06 | 0.28 | 12.7 | 0.000912 | 3.3e+06 | – | – | – | –
7 | L3.PY/L3.KF/H3.TAQ (antibody, V domains shown, IgG) VH: EVQLLESGGGLVQPGGSLRLSCAASGFTFGSYAMTWVRQAPGKGLEWVSAISGSGGNTFYADSVKGRFTISRDNSKNTLYLQMNSLRAEDTAVYYCTRVSPIAAQMDYWGQGTLVTVSS VL: EIVLTQSPGTLSLSPGERATLSCRASQSVSSSYLAWYQQKPGQAPRLLIYGASSRATGIPDRFSGSGSGTDFTLTISRLEPEDFAVYYCKFYPYPPSFTFGQGTKVEIK | 0.95 | 6.05 | 0.00191 | 2.01e+06 | 0.58 | 7.12 | 0.00162 | 2.82e+06 | – | – | – | –
8 | L3.PY/L3.KY/H2.DY (antibody, V domains shown, IgG) VH: EVQLLESGGGLVQPGGSLRLSCAASGFTFGSYAMTWVRQAPGKGLEWVSAIDYSGGNTFYADSVKGRFTISRDNSKNTLYLQMNSLRAEDTAVYYCARVSPIASGMDYWGQGTLVTVSS VL: EIVLTQSPGTLSLSPGERATLSCRASQSVSSSYLAWYQQKPGQAPRLLIYGASSRATGIPDRFSGSGSGTDFTLTISRLEPEDFAVYYCKYYPYPPSFTFGQGTKVEIK | 1.24 | 4.75 | 0.00243 | 1.96e+06 | 0.2 | 18 | 0.000642 | 3.19e+06 | – | – | – | –
9 | L3.PY/L3.KY/H2.QL (antibody, V domains shown, IgG) VH: EVQLLESGGGLVQPGGSLRLSCAASGFTFGSYAMTWVRQAPGKGLEWVSAISGSGGNTFYADQLKGRFTISRDNSKNTLYLQMNSLRAEDTAVYYCARVSPIASGMDYWGQGTLVTVSS VL: EIVLTQSPGTLSLSPGERATLSCRASQSVSSSYLAWYQQKPGQAPRLLIYGASSRATGIPDRFSGSGSGTDFTLTISRLEPEDFAVYYCKYYPYPPSFTFGQGTKVEIK | 1.49 | 2.83 | 0.00409 | 2.75e+06 | 0.57 | 5.56 | 0.00208 | 3.65e+06 | – | – | – | –
10 | L3.PY/L3.KY/H2.LT (antibody, V domains shown, IgG) VH: EVQLLESGGGLVQPGGSLRLSCAASGFTFGSYAMTWVRQAPGKGLEWVSAISLTGGNTFYADSVKGRFTISRDNSKNTLYLQMNSLRAEDTAVYYCARVSPIASGMDYWGQGTLVTVSS VL: EIVLTQSPGTLSLSPGERATLSCRASQSVSSSYLAWYQQKPGQAPRLLIYGASSRATGIPDRFSGSGSGTDFTLTISRLEPEDFAVYYCKYYPYPPSFTFGQGTKVEIK | 1.27 | 4.98 | 0.00232 | 1.82e+06 | 0.31 | 12.8 | 0.000906 | 2.92e+06 | – | – | – | –
11 | L3.PY/L3.KF/H3.YA (antibody, V domains shown, IgG) VH: EVQLLESGGGLVQPGGSLRLSCAASGFTFGSYAMTWVRQAPGKGLEWVSAISGSGGNTFYADSVKGRFTISRDNSKNTLYLQMNSLRAEDTAVYYCARVSPIYAGMDYWGQGTLVTVSS VL: EIVLTQSPGTLSLSPGERATLSCRASQSVSSSYLAWYQQKPGQAPRLLIYGASSRATGIPDRFSGSGSGTDFTLTISRLEPEDFAVYYCKFYPYPPSFTFGQGTKVEIK | 3.78 | 1.45 | 0.00796 | 2.1e+06 | 0.47 | 7.85 | 0.00147 | 3.12e+06 | – | – | – | –
12 | L3.PY/L3.KF/H2.YQ (antibody, V domains shown, IgG) VH: EVQLLESGGGLVQPGGSLRLSCAASGFTFGSYAMTWVRQAPGKGLEWVSAISYQGGNTFYADSVKGRFTISRDNSKNTLYLQMNSLRAEDTAVYYCARVSPIASGMDYWGQGTLVTVSS VL: EIVLTQSPGTLSLSPGERATLSCRASQSVSSSYLAWYQQKPGQAPRLLIYGASSRATGIPDRFSGSGSGTDFTLTISRLEPEDFAVYYCKFYPYPPSFTFGQGTKVEIK | 3.55 | 2.3 | 0.00501 | 1.41e+06 | 1.14 | 5.18 | 0.00223 | 1.96e+06 | – | – | – | –
13 | L3.PY/L3.KF/H3.AE (antibody, V domains shown, IgG) VH: EVQLLESGGGLVQPGGSLRLSCAASGFTFGSYAMTWVRQAPGKGLEWVSAISGSGGNTFYADSVKGRFTISRDNSKNTLYLQMNSLRAEDTAVYYCARVSPIAAEMDYWGQGTLVTVSS VL: EIVLTQSPGTLSLSPGERATLSCRASQSVSSSYLAWYQQKPGQAPRLLIYGASSRATGIPDRFSGSGSGTDFTLTISRLEPEDFAVYYCKFYPYPPSFTFGQGTKVEIK | 3.05 | 2.05 | 0.00564 | 1.85e+06 | 0.51 | 7.44 | 0.00155 | 3.07e+06 | – | – | – | –
14 | L3.PY/L3.KY/H2.YQ (antibody, V domains shown, IgG) VH: EVQLLESGGGLVQPGGSLRLSCAASGFTFGSYAMTWVRQAPGKGLEWVSAISYQGGNTFYADSVKGRFTISRDNSKNTLYLQMNSLRAEDTAVYYCARVSPIASGMDYWGQGTLVTVSS VL: EIVLTQSPGTLSLSPGERATLSCRASQSVSSSYLAWYQQKPGQAPRLLIYGASSRATGIPDRFSGSGSGTDFTLTISRLEPEDFAVYYCKYYPYPPSFTFGQGTKVEIK | 2.04 | 4.47 | 0.00258 | 1.27e+06 | 0.77 | 7.02 | 0.00165 | 2.14e+06 | – | – | – | –
15 | L3.PY/L3.KY/H2.QR (antibody, V domains shown, IgG) VH: EVQLLESGGGLVQPGGSLRLSCAASGFTFGSYAMTWVRQAPGKGLEWVSAISGSGGNTFYADQRKGRFTISRDNSKNTLYLQMNSLRAEDTAVYYCARVSPIASGMDYWGQGTLVTVSS VL: EIVLTQSPGTLSLSPGERATLSCRASQSVSSSYLAWYQQKPGQAPRLLIYGASSRATGIPDRFSGSGSGTDFTLTISRLEPEDFAVYYCKYYPYPPSFTFGQGTKVEIK | 3.78 | 1.49 | 0.00774 | 2.05e+06 | 0.34 | 11.7 | 0.00099 | 2.95e+06 | – | – | – | –
16 | L3.PY/L3.KY/H3.TAQ (antibody, V domains shown, IgG) VH: EVQLLESGGGLVQPGGSLRLSCAASGFTFGSYAMTWVRQAPGKGLEWVSAISGSGGNTFYADSVKGRFTISRDNSKNTLYLQMNSLRAEDTAVYYCTRVSPIAAQMDYWGQGTLVTVSS VL: EIVLTQSPGTLSLSPGERATLSCRASQSVSSSYLAWYQQKPGQAPRLLIYGASSRATGIPDRFSGSGSGTDFTLTISRLEPEDFAVYYCKYYPYPPSFTFGQGTKVEIK | 1.06 | 6.03 | 0.00192 | 1.81e+06 | 0.23 | 17.8 | 0.000649 | 2.79e+06 | – | – | – | –
